For the assay, the target named is HmenB3 monoclonal antibody against Neisseria meningitidis serogroup B capsular polysaccharide. The assay can be described thus: cell-based or functional assay.

B1: Naid60 anti-idiotypic monoclonal antibody (Ab2) to HmenB3 (antibody, IgG1, V domains shown)
VH: EVKLVESGGGLVQPGGSLKLSCATSGFLFTDYYMFWVRQTPEKRLEWVAYISNGGGDTYYPDTVKGRFTISRDNAKNALYLQMSRLKSEDTAMYYCARHKGYYGYYYALDYWGQGT
VL: DIQLTQSPATLSVTPGDSVSLSCRASQSISNNLHWYQQKSHESPRLLIKYASQSISGIPSRFSGSGSGTDFTLSINSVETEDFGMYFCQQSNNWPLTFGAGTK
B1: the bacterial cell death rate (complement-mediated bactericidal activity of HmenB3 against NMGB) at 4 mg/L Naid60 came to 57.7% and the bacterial cell death rate (complement-mediated bactericidal activity of HmenB3 against NMGB) at 40 mg/L Naid60 was 0%.

For the origin of these results see patent US7250164.
